B1: TPR t1 (parent)
chain: GACCAAUCUGCCCUCAGAGCUCGAGAACAUCUUCGGAUGCAGAGGAGGCAGGCUUCGGUGGCGCGAUAGCGCCAACGUCCUCAACCUCCAAUGCAUCCCACCACAUGAUGAUGCCUGAAGAGCCUUGGUUUUUUG

These results are taken from the RNAGym collection of RNA variant scans (doi:10.1073/pnas.2313332121).

In the series the parent is B1. Nature of the series: polymerase ribozyme fitness, log enrichment relative to wild type (log ratio); higher = more active; in vitro selection for triplet polymerase activity. In outline:
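A heterodimeric triplet polymerase ribozyme had each of its subunits mutagenized by PCR into a library, which was transcribed. One round of in vitro selection, done in triplicate, annealed each library with a biotinylated primer, its partner subunit and triplets, then incubated it frozen at −7 °C before gel excision of extended constructs, streptavidin-bead capture and RT-PCR. Fitness is the logarithm of genotype enrichment relative to wild-type enrichment, based on Illumina sequencing of inputs and outputs and inverse-variance-weighted replicate averages. A base-2 logarithm is used, and genotypes were kept only with ≥10 input reads and ≥1 read per output.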
As to C34G A91G C114A U132A, the “polymerase ribozyme fitness (log ratio)” value was -6.48. Regarding C34G C64A U116C G117U, the “polymerase ribozyme fitness (log ratio)” value was -7.25. For G36C C64U G113U, the “polymerase ribozyme fitness (log ratio)” value was -3.55.

G35U G113C: the “polymerase ribozyme fitness (log ratio)” value is -7.04. In the case of G36C C94U C97U, the “polymerase ribozyme fitness (log ratio)” value was -1.57. The same measure for G36A C88U: -0.885; for C34G G63U C70U: -6.08. Regarding G35A G63C, the “polymerase ribozyme fitness (log ratio)” value is -5.56.

In the case of G35A G63A, the “polymerase ribozyme fitness (log ratio)” value was -3.91.

For the variant G35A A100G, the “polymerase ribozyme fitness (log ratio)” value was -6.42. Under G36A U78A C82G U125G stands -2.73; under G36C C72A C76A U106A G110A, -5.56. Under G35A A66G stands -6.38; under C34G G35C G63U A111U, -5.76; under G35A G120C C124A, -3.97. Regarding G36C C40A C101A C104U A121U, the “polymerase ribozyme fitness (log ratio)” value was -1.4. On to G35U C64U, for which the “polymerase ribozyme fitness (log ratio)” value is -5.09. As for G36A A37U C86U U112A G120U, the “polymerase ribozyme fitness (log ratio)” value is -5.12. For the variant G36A G110A, the “polymerase ribozyme fitness (log ratio)” value is -2.64.

For the variant G35C G47A C56U A111G, the “polymerase ribozyme fitness (log ratio)” value was -5.32. The same measure for G35A U78A: -4.53; for G35U U54C C64G C76G C85U G113U: -7.14. Take G36A U129G: the “polymerase ribozyme fitness (log ratio)” value is -2.39.

As to G35C G61A U106G U112A, the “polymerase ribozyme fitness (log ratio)” value is -3.75. The same measure for C34U C72U: -4.07; for G36A C72A C97U A121G: 1.78.

As to C34U U81C, the “polymerase ribozyme fitness (log ratio)” value was -5.69.

On to C34U U81A, for which the “polymerase ribozyme fitness (log ratio)” value is -5.06. As for G36A U92A C115U, the “polymerase ribozyme fitness (log ratio)” value was -4.93.

As for G35U C40U, the “polymerase ribozyme fitness (log ratio)” value is -4.76.

With C34G C115A, the “polymerase ribozyme fitness (log ratio)” value is -5.21. Under G36A C64U stands -0.622; under C34U U59A C94U, -5.57. Under G35C G36A C40A C94U C114U stands -6.41; under C34G A95G U109G G117C, -6.44; under C34U C88G C123G, -3.83. The same measure for G36A C49G G69U A90G C97U G120C: 0.538; for G36A U54A C89G C101G: -5.15. As for G35U G39C G120A U125A, the “polymerase ribozyme fitness (log ratio)” value is -5.76. The same measure for G35C A111C: -4.47.

As to C34U C56A C82A A83U C97A A121U, the “polymerase ribozyme fitness (log ratio)” value is -5.4.

As to C34U G58A C97U C123G, the “polymerase ribozyme fitness (log ratio)” value was -5.6. With G35U C72U G117C, the “polymerase ribozyme fitness (log ratio)” value was -7.07. G35C A95G: the “polymerase ribozyme fitness (log ratio)” value is -4.43.

Consider G35U U106C G122A, for which the “polymerase ribozyme fitness (log ratio)” value was -6.34.

As to G36A C115U, the “polymerase ribozyme fitness (log ratio)” value was -1.88.

As for C34G C97U C123A, the “polymerase ribozyme fitness (log ratio)” value is -6.44.

As to G35C C53U C94U A121C, the “polymerase ribozyme fitness (log ratio)” value was -3.49. Under G35A G42A G61A U106A U112G A121C G127U G128A stands -6.38; under G35A C53G C104U G117U C124G U126G, -5.98; under G36A C72U U116C, -1.78. On to C34G U112A U130C, for which the “polymerase ribozyme fitness (log ratio)” value was -6.03. Regarding G36C A50U C62U C101G, the “polymerase ribozyme fitness (log ratio)” value was -4.84. Under G36C C49U C101G A119U stands -3.31. On to G35A U55C C115U, for which the “polymerase ribozyme fitness (log ratio)” value is -5.27. As for C34U G65C G117C A121C, the “polymerase ribozyme fitness (log ratio)” value was -7.56. As to G36A G71A U87C C123G, the “polymerase ribozyme fitness (log ratio)” value came to 0.907. The same measure for G35U C56U A121G: -4.8; for C34U G63U G69A A84G: -6.86. The same measure for G35C G52U A68C U92A C98G G110C G117U: -6.61. Consider G36A G52C, for which the “polymerase ribozyme fitness (log ratio)” value is -2.17. The same measure for G36A G71U C76U U125A: -4.4. The same measure for C34U C85U: -4.13; for G35A C73A U78G A90G C115G A121C: -4.57; for G35U C101A: -4.48.

Consider G35U C101U, for which the “polymerase ribozyme fitness (log ratio)” value is -6.26.

Consider C34U A41G C53U, for which the “polymerase ribozyme fitness (log ratio)” value was -4.95. Under G36A A41U C56G G57U stands -3.93; under G35A C102A, -4.61; under G35A U132A, -3.49. The same measure for C34G G61A G120A: -5.72; for C34U A46U C56G C72U G120C: -5.35. Consider G35C C85A U109A C114G C124U, for which the “polymerase ribozyme fitness (log ratio)” value was -4.87.

As to G35U G113C G120A G135C, the “polymerase ribozyme fitness (log ratio)” value was -5.82. Under G36A C86A C115A G120U stands -2.65; under G35A G77U, -3.89. The same measure for C34U G58A C99U: -4.17. In the case of G35C C49A U112G, the “polymerase ribozyme fitness (log ratio)” value is -6.16.

In the case of G35U A84C, the “polymerase ribozyme fitness (log ratio)” value was -5.41. In the case of C34G C53U G61U C73U G113C C114G, the “polymerase ribozyme fitness (log ratio)” value is -8.49. Under C34G G36A C49A C86U C124A stands -6.09. Under G35A G45A stands -4.16.

For G35U G120U, the “polymerase ribozyme fitness (log ratio)” value is -5.06.
